In the RNAGym collection of RNA variant scans (doi:10.1093/molbev/msab373):

B1: Azoarcus group I ribozyme (parent)
chain: GUGCCUUGCGCCGGGAAACCACGCAAGGGAUGGUGUCAAAUUCGGCGAAACCUAAGCGCCCGCCCGGGCGUAUGGCAACGCCGAGCCAAGCUUCGGCGCCUGCGCCGAUGAAGGUGUAGAGACUAGACGGCACCCACCUAAGGCAAACGCUAUGGUGAAGGCAUAGUCCAGGGAGUGGCGAAAGUCACACAAACCGG

Variants of: B1
Assay: reverse-splicing fitness (ratio to wild type); higher = more active; in vitro selection; Mg2+ level not given
Outline: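 An in vitro group I ribozyme library with randomized positions was T7-transcribed and gel-purified. In triplicate, 10 pmol RNA in EPPS pH 7.5 was reacted with 50 pmoles of a 30-nt RNA substrate for 1 h at 37 °C across several added MgCl2 levels (1–48 mM), then stopped with EDTA. Products were reverse transcribed from a substrate-complementary primer, PCR-amplified and sequenced (HiSeq 4000). Fitness is a variant's read proportion after selection over that before, normalised to wild type.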

**Q.** Which reverse-splicing fitness does the source give for C82U A111C A120G A145U C150G C169U U176C here?
**A.** 0.0106

**Q.** Which reverse-splicing fitness does the source give for C82U A111C A120G A145U C150G C169U U176G here?
**A.** 0.00419

**Q.** With C82U A111C A120G A145U C150G C169U U176A as the variant, how does the reverse-splicing fitness read?
**A.** 0.00881

**Q.** For C82U A111C A120G A145U C150A U176C, which reverse-splicing fitness is on record?
**A.** 0.0144

**Q.** Which reverse-splicing fitness does the source give for C82U A111C A120G A145U C150A U176A here?
**A.** 0.0119

**Q.** Which reverse-splicing fitness does the source give for C82U A111C A120G A145U C150A U176G here?
**A.** 0.00424

**Q.** For C82U A111C A120G C150G C169U U176A, which reverse-splicing fitness is on record?
**A.** 0.00853

**Q.** With C82U A111C A120G C150G C169U U176C as the variant, how does the reverse-splicing fitness read?
**A.** 0.0121

**Q.** Which reverse-splicing fitness does the source give for C82U A111C A120G C150G C169U U176G here?
**A.** 0.00505

**Q.** Which reverse-splicing fitness does the source give for C82U A111C A120G A145C C150U C169G U176G here?
**A.** 0.00492

**Q.** With C82U A111C A120G A145C C150U C169G U176C as the variant, how does the reverse-splicing fitness read?
**A.** 0.0105

**Q.** For C82U A111C A120G A145C C150U C169G U176A, which reverse-splicing fitness is on record?
**A.** 0.0181

**Q.** For C82U A111C A120G A145G C150U C169G U176A, which reverse-splicing fitness is on record?
**A.** 0.0112

**Q.** For C82U A111C A120G A145G C150U C169G U176C, which reverse-splicing fitness is on record?
**A.** 0.0159

**Q.** For C82U A111C A120G A145G C150U C169G U176G, which reverse-splicing fitness is on record?
**A.** 0.00467

**Q.** Which reverse-splicing fitness does the source give for C82U A111C A120U A145C C150A C169A U176A here?
**A.** 0.00222

**Q.** For C82U A111C A120U A145C C150A C169A U176C, which reverse-splicing fitness is on record?
**A.** 0.00295

**Q.** With C82U A111C A120U A145C C150A C169A U176G as the variant, how does the reverse-splicing fitness read?
**A.** 0.00183

**Q.** Which reverse-splicing fitness does the source give for C82U A111C A120G C150A U176C here?
**A.** 0.0182

**Q.** With C82U A111C A120G C150A U176A as the variant, how does the reverse-splicing fitness read?
**A.** 0.0152

**Q.** With C82U A111C A120G C150A U176G as the variant, how does the reverse-splicing fitness read?
**A.** 0.00579

**Q.** For C82U A111C A120U A145C C150G C169A U176A, which reverse-splicing fitness is on record?
**A.** 0.00289

**Q.** For C82U A111C A120U A145C C150G C169A U176G, which reverse-splicing fitness is on record?
**A.** 0.0024

**Q.** Which reverse-splicing fitness does the source give for C82U A111C A120U A145C C150G C169A U176C here?
**A.** 0.00245

**Q.** Which reverse-splicing fitness does the source give for C82U A111C A120G A145U C150G C169G here?
**A.** 0.00689

**Q.** Which reverse-splicing fitness does the source give for C82U A111C A120G A145U C150G C169U here?
**A.** 0.00734

**Q.** For C82U A111C A120G A145U C150G C169A, which reverse-splicing fitness is on record?
**A.** 0.00828

**Q.** With C82U A111C A120G A145G C169A U176C as the variant, how does the reverse-splicing fitness read?
**A.** 0.0272

**Q.** With C82U A111C A120G A145G C169A U176G as the variant, how does the reverse-splicing fitness read?
**A.** 0.00456

**Q.** With C82U A111C A120G A145G C169A U176A as the variant, how does the reverse-splicing fitness read?
**A.** 0.0193

**Q.** With C82U A111C A120G C150U C169A U176A as the variant, how does the reverse-splicing fitness read?
**A.** 0.0142

**Q.** With C82U A111C A120G C150U C169A U176G as the variant, how does the reverse-splicing fitness read?
**A.** 0.00479

**Q.** For C82U A111C A120G C150U C169A U176C, which reverse-splicing fitness is on record?
**A.** 0.0113

**Q.** With C82U A111C A120G A145C C150G U176A as the variant, how does the reverse-splicing fitness read?
**A.** 0.00659

**Q.** For C82U A111C A120G A145C C150G U176G, which reverse-splicing fitness is on record?
**A.** 0.00269

**Q.** For C82U A111C A120G A145C C150G U176C, which reverse-splicing fitness is on record?
**A.** 0.0106

**Q.** For C82U A111C A120G A145G C150G C169U U176A, which reverse-splicing fitness is on record?
**A.** 0.0116

**Q.** Which reverse-splicing fitness does the source give for C82U A111C A120G A145G C150G C169U U176G here?
**A.** 0.00643

**Q.** Which reverse-splicing fitness does the source give for C82U A111C A120G A145G C150G C169U U176C here?
**A.** 0.0104

**Q.** With C82U A111C A120C C150U U176A as the variant, how does the reverse-splicing fitness read?
**A.** 0.00888

**Q.** With C82U A111C A120C C150U U176C as the variant, how does the reverse-splicing fitness read?
**A.** 0.0168

**Q.** With C82U A111C A120C C150U U176G as the variant, how does the reverse-splicing fitness read?
**A.** 0.00627

**Q.** For C82U A111C A120G A145C C150A C169U, which reverse-splicing fitness is on record?
**A.** 0.00688

**Q.** With C82U A111C A120G A145C C150A C169A as the variant, how does the reverse-splicing fitness read?
**A.** 0.00641

**Q.** Which reverse-splicing fitness does the source give for C82U A111C A120G A145C C150A C169G here?
**A.** 0.00682

**Q.** With C82U A111C A120G A145G C150G C169G U176G as the variant, how does the reverse-splicing fitness read?
**A.** 0.00526

**Q.** Which reverse-splicing fitness does the source give for C82U A111C A120G A145G C150G C169G U176A here?
**A.** 0.00921

**Q.** For C82U A111C A120G A145G C150G C169G U176C, which reverse-splicing fitness is on record?
**A.** 0.0114

**Q.** Which reverse-splicing fitness does the source give for C82U A111C A120G A145C C150A C169U U176G here?
**A.** 0.00441

**Q.** With C82U A111C A120G A145C C150A C169U U176C as the variant, how does the reverse-splicing fitness read?
**A.** 0.00704

**Q.** Which reverse-splicing fitness does the source give for C82U A111C A120G A145C C150A C169U U176A here?
**A.** 0.0166

**Q.** Which reverse-splicing fitness does the source give for C82U A111C A120G C150U C169U U176A here?
**A.** 0.017

**Q.** Which reverse-splicing fitness does the source give for C82U A111C A120G C150U C169U U176G here?
**A.** 0.00513

**Q.** Which reverse-splicing fitness does the source give for C82U A111C A120G C150U C169U U176C here?
**A.** 0.014

**Q.** With C82U A111C A120G C169A U176C as the variant, how does the reverse-splicing fitness read?
**A.** 0.019

**Q.** For C82U A111C A120G C169A U176A, which reverse-splicing fitness is on record?
**A.** 0.0141

**Q.** With C82U A111C A120G C169A U176G as the variant, how does the reverse-splicing fitness read?
**A.** 0.00418

**Q.** For C82U A111C A120G C150U U176G, which reverse-splicing fitness is on record?
**A.** 0.00514

**Q.** For C82U A111C A120G C150U U176A, which reverse-splicing fitness is on record?
**A.** 0.0106

**Q.** Which reverse-splicing fitness does the source give for C82U A111C A120G C150U U176C here?
**A.** 0.0194

**Q.** With C82U A111C A120G A145U C169U U176A as the variant, how does the reverse-splicing fitness read?
**A.** 0.0158

**Q.** With C82U A111C A120G A145U C169U U176C as the variant, how does the reverse-splicing fitness read?
**A.** 0.0112

**Q.** Which reverse-splicing fitness does the source give for C82U A111C A120G A145U C169U U176G here?
**A.** 0.00369

**Q.** With C82U A111C A120G A145U C150A C169G U176C as the variant, how does the reverse-splicing fitness read?
**A.** 0.0126

**Q.** For C82U A111C A120G A145U C150A C169G U176A, which reverse-splicing fitness is on record?
**A.** 0.0105

**Q.** Which reverse-splicing fitness does the source give for C82U A111C A120G A145U C150A C169G U176G here?
**A.** 0.00431

**Q.** Which reverse-splicing fitness does the source give for C82U A111C A120G U176G here?
**A.** 0.00514

**Q.** Which reverse-splicing fitness does the source give for C82U A111C A120G U176C here?
**A.** 0.02

**Q.** For C82U A111C A120G U176A, which reverse-splicing fitness is on record?
**A.** 0.0155

**Q.** For C82U A111C A120G A145C C150U C169A U176A, which reverse-splicing fitness is on record?
**A.** 0.00813

**Q.** With C82U A111C A120G A145C C150U C169A U176G as the variant, how does the reverse-splicing fitness read?
**A.** 0.00505

**Q.** With C82U A111C A120G A145C C150U C169A U176C as the variant, how does the reverse-splicing fitness read?
**A.** 0.00554

**Q.** With C82U A111C A120G A145G C169G as the variant, how does the reverse-splicing fitness read?
**A.** 0.00926

**Q.** For C82U A111C A120G A145G C169A, which reverse-splicing fitness is on record?
**A.** 0.0105

**Q.** For C82U A111C A120G A145G C169U, which reverse-splicing fitness is on record?
**A.** 0.00883

**Q.** For C82U A111C A120G C150A C169G, which reverse-splicing fitness is on record?
**A.** 0.00808

**Q.** With C82U A111C A120G C150A C169A as the variant, how does the reverse-splicing fitness read?
**A.** 0.0101

**Q.** For C82U A111C A120G C150A C169U, which reverse-splicing fitness is on record?
**A.** 0.00789

**Q.** For C82U A111C A120G C150G C169G U176G, which reverse-splicing fitness is on record?
**A.** 0.00455

**Q.** Which reverse-splicing fitness does the source give for C82U A111C A120G C150G C169G U176A here?
**A.** 0.00584

**Q.** With C82U A111C A120G C150G C169G U176C as the variant, how does the reverse-splicing fitness read?
**A.** 0.00488

**Q.** For C82U A111C A120G A145G C150U C169G, which reverse-splicing fitness is on record?
**A.** 0.00984

**Q.** Which reverse-splicing fitness does the source give for C82U A111C A120G A145G C150U C169A here?
**A.** 0.0103

**Q.** Which reverse-splicing fitness does the source give for C82U A111C A120G A145G C150U C169U here?
**A.** 0.00958
